{"source": "the nanobody polyreactivity screen of Harvey et al. (2022)"}
{"test": "yeast display, Sf9 membrane polyspecificity reagent, FACS + sequencing; frameworks hold sequencing errors", "procedure,_shortened": "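Nanobodies came from a synthetic yeast display library in Saccharomyces cerevisiae BJ5465, induced with galactose for 36–48 hours and stained for 1 hour at 4 °C with 10% biotinylated, detergent-solubilized Sf9 membrane reagent. Cells were enriched on streptavidin microbeads and then FACS-sorted, with low and high (top ~1%) gates set on anti-HA fluorescence for expression and streptavidin fluorescence for reagent binding. Each polyreactivity label reflects the gate a clone came from. Genes were amplified by colony PCR, sequenced by MiSeq 2 × 250 and filtered by CDR length.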"}
{"sequence": "QVQLVESGGGLVQAGGSLRLSCAASGRTFFRYAMGWYRQAPGKERELVAAISSSGGSSYYADSVKGRFTISRDNAKNTVYLQMNSLKPEDTAVYYCNRVYALTYYAKYGYDFWGQGTQVTVSS", "polyreactivity (PSR sort gate)": "high polyreactivity"}
{"sequence": "QVQLVESGGGLVQAGGSLRLSCPASGIIFSTYAMGWYRQAPGKERELVATITSSGSNTYYADSVKGRFTISRDNAKNTVYLQMNSLKPEDTAVYYCATYSFFWWQYDYWGQGSQVTVSS", "polyreactivity (PSR sort gate)": "high polyreactivity"}
{"sequence": "QVQLVESGGGLVQAGGSLRLSCAASGITFYWYAMGWYRQAPGKDRELVASITGNGGGTSYADSVKGRFTIARDNAKNTVYLQMNSLKPEDTAVYYCNTSVGGKEYDSWGQGTQVTVTS", "polyreactivity (PSR sort gate)": "low polyreactivity"}
{"sequence": "QVQLVESGGGLVQAGGSLRLSCAASGLTFPPYAMGWSRQAPGNERELVAAISRIRGRTYYADSVKGRFTISRDTAKNTVYLQMNSLKPEDTAVYYCAADGIKGGDEYDYWGQGTQVTVSS", "polyreactivity (PSR sort gate)": "high polyreactivity"}
{"sequence": "QVQLVESGGGLVQAGGSLRLSCADSGIIFTQYAMGWYRQAPGKERELVAGISKSGGSTYYADSVKGRFTISRDNAKNTVYLQMNSLKPEDTAVYYCAAPVPKTDKLLRMYYWGQGTQVTVSS", "polyreactivity (PSR sort gate)": "high polyreactivity"}
{"sequence": "QVQLVESGGCLVQAGGSLRLSCAASGRIFRYNTMGWYRQAPGKEREFVASISNGGSTNYADSVKGRFTISRDNAKNTVYLQMNSLKPEDTAVYYCNADVPSDGYPGYPGGFESWGQGTQVTVSS", "polyreactivity (PSR sort gate)": "low polyreactivity"}
{"sequence": "QVQLVESGGGLVQAGGSLRLSCAASGITLGYYAMGWYRQAPGKERELVAAISYRGGNTYYADSVKGRFTISRDNAKNTVYLQRNSLKPEDTAVYYCNADLGYESGWWSKYDYWGQGTQVTVSS", "polyreactivity (PSR sort gate)": "low polyreactivity"}
{"sequence": "QVQLVETGGGLLQAGGSLRLSCAASGFTFDFYAMGWYRQAPGKERELVAAINWSGSSTYYADSVKGRFTISRDNAKNTVYLQMNSLKPEDTAVYYCAAQVYYTLFPDVYTMYYWGQGTQVTVSS", "polyreactivity (PSR sort gate)": "high polyreactivity"}
{"sequence": "QVQLVESGGGLVQAGGSLRLSCAASGRIFFGYAMGWYRQAPGKERELVASISRGGSTNYADSVKGRFTISRDNAKNTVYLEMNSLKPEDTAVYYCAASRRRWSQQQGYGYYYWGQGTQVTVSS", "polyreactivity (PSR sort gate)": "high polyreactivity"}
{"sequence": "QVQLVESGGGLVQAGGSLRLSCAASGRTFYYSMGWYRQAPGKERYADSVKGRFTISRDNAKNTVYLQMNSLKPEDTAVYYCSAKVPEPPSLDESDYWGQGTQVTVSS", "polyreactivity (PSR sort gate)": "low polyreactivity"}
{"sequence": "QVQLLESGGRLVQAGGSLRLSCMASGSILGDRMSWYRQAPGKEHELVATIYDGGITYYADSMKGRFTISRDNAKNTVYLQMNSLRPEDTAVYYCGASFEGYRYHVYCGQGTQVTVSS", "polyreactivity (PSR sort gate)": "low polyreactivity"}
{"sequence": "QVQLVESGGGLVQAGGSLRLTWAASGSIFTYYTRGWYRQAPGKERELVATIRYTGGNTYYADSVKGRFTISRDNAKNTVYLQMNILKPEDTAVYYCATGYSYRNVPTFRWLYYWGQGTQVTVSS", "polyreactivity (PSR sort gate)": "low polyreactivity"}
{"sequence": "QVQLVESGGGLVQAGGSLRLSCAASGRIFTYYGMGWYRQARGKERELVAAISSSGDSTFYADSVKGRFTISRDNGKNTVYLQMNSLKPEDTAVYYCAADYYYVWYDYWGQGTQVTVSS", "polyreactivity (PSR sort gate)": "low polyreactivity"}
{"sequence": "QVQLEESGVGLVQAGGSLRLICAASGITLFHYVMGWYRQAPGKERELVAVISSSGGSTYYADSVKGRFTISRDNAKNTVYLQMNSLKPEDTAVYYCAAETDSRKARVLYDCWGQGTQVTVSS", "polyreactivity (PSR sort gate)": "high polyreactivity"}
{"sequence": "QVQLVESGGGLVQAGGSHRLSCAASGSIFSWYAMGWYRQAPGKVRELVAAITWTRGSTYYADSVKGRFTISRDTANNTVYLQMKSLKPDDSAVYYCAARRVVYRYYWYSAYVYWGQGTQVTVSS", "polyreactivity (PSR sort gate)": "high polyreactivity"}
{"sequence": "QVQLVESGGGLVQAGGSLRISCAASGSTFKRNVMGWYRQAPGKERELVAAISRTDGRTYYADSVKGRFTISRDNAKNSVYLEMNSLKPEDTAVYYCAATTGHRTYRYYYWGHGTQVTVSS", "polyreactivity (PSR sort gate)": "high polyreactivity"}
{"sequence": "QVQLVESGGGLVQAGGSLRLSCAASGRIFVLYAMGWYRQAPGKERELVADITVSGGSTYYADSVKGRFTISRDNAKNTVYLQMNSLKPEDTAVYYCAADQRYWKFDSWGQGTQVTVSS", "polyreactivity (PSR sort gate)": "high polyreactivity"}
